Experimental data as given in PMC3302219.

Key:
Experiment in all cases: FRET or BRET
Conditions in all cases: remark: other sources report otherwise
[1] = target: T1, CXCR4 fused to CFP (CXCR4-C) or to YFP (CXCR4-Y) (human), P61073
T1 chain: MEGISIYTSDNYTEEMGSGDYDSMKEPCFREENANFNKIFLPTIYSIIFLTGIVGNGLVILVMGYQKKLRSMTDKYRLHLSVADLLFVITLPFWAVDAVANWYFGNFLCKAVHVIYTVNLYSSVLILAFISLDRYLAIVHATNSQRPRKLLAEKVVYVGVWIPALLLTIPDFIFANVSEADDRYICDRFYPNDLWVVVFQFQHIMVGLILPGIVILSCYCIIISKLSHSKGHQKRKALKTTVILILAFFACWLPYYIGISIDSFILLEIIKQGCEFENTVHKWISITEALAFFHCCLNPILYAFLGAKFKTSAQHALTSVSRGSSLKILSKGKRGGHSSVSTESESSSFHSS

[2] = target: T1, CXCR4 fused to CFP (CXCR4-C) or to YFP …
[3] = target: T1, CXCR4 fused to CFP (CXCR4-C) or to YFP …

B1: CXCR4 fused to CFP (CXCR4-C) or to YFP (CXCR4-Y), P61073 1-352 (receptor)
chain: T1 chain
What does the source list for B1?
FRET50 [1]: 1.55; FRET50 [2]: 1.61; FRET50 [3]: 1.27
